Tested on: hepatic encephalopathy model animal
Assay: hepatic encephalopathy model rat (partial hepatectomy + ammonium acetate): coma period and plasma ammonia (Test Examples 1-3)
Format: in vivo
Conditions: for coma period / concentration of ammonia in the blood: mean ± standard error
Method: A test drug was prepared by dissolving rat serum albumin (RSA, manufactured by Sigma Corp.) in an amino acid solution (components are disclosed in Table 3) to form a 0.1 w/v % or 1.0 w/v % solution, adding 1.0 N hydrochloric acid thereto to adjust the pH to 6.6 to 7.4 according to Preparation Example 3, filling the solution into a 500 ml infusion bottle and heating at 60° C. for 10 hours after sealing the bottle with a rubber plug. In comparison, physiological saline or the amino acid solution (pH 6.6 to 7.4), respectively, was used in the same way.
Rat partial hepatectomy was carried out by performing a laparotomy of a male SD rat (body weight of 200 to 230 g) under etherization, removing a lateral left lobe, a medial left lobe and a medial right lobe (67%) and closing the abdomen (Archs. Pathol., 1985; 12: 186-202).
A hepatic encephalopathy model animal was created by administering 2 M ammonium acetate solution at a rate of 3 ml/kg into the rat abdomen after 48 hours from the partial hepatectomy (“Kiso to Rinsho”, 1987; 21: 2509-2527).
The test drug was injected from the rat tail vein (10 ml/kg) 2 minutes before administering the ammonium solution. Subsequently, the coma period (minutes) was measured, blood was collected from the rat tail vein 30 minutes after administration of the ammonium solution, and the ammonia concentration in the blood plasma was determined by using an ammonia measuring reagent kit (brand name: Determiner NH3, manufactured by Kyowa Medics Corporation).
A test drug was prepared by dissolving human serum albumin (HSA, manufactured by Sigma Corp.) in the amino acid solution (components are disclosed in Table 3) in the same manner as in Preparation Example 3 to form a desired concentration of the solution (0.001, 0.01, 0.1 or 1.0 w/v %). 6 to 14 male SD rats (body weight 200 to 230 g) as test animals were used per one group, and creation of a hepatic encephalopathy model animal and a test method were carried out in the same manner as Test Example 1. The test drug was injected in an amount of 10 ml/kg from the tail vein.
A test drug was prepared by dissolving bovine serum albumin (BSA, manufactured by Sigma Corp.) in the amino acid solution (components bare disclosed in Table 3) in the same manner as in Preparation Example 3 to form a desired concentration of the solution (0.1 w/v % or 1.0 w/v %). Creation of a hepatic encephalopathy model animal and a test method were carried out in the same manner as Test Example 1.

Molecule | coma period (Test Example 3 (BSA)) | concentration of ammonia in the blood (Test Example 3 (BSA)) | effect on the hepatic encephalopathy (Test Example 1, text on Table 4) | concentration of ammonia in the blood (Test Example 1, blood plasma 30 min after ammonium solution, test drug 10 ml/kg tail vein) | coma period (Test Example 1, male SD rat, test drug 10 ml/kg tail vein 2 min before ammonium acetate)
1.0% BSA: bovine serum albumin (BSA, manufactured by Sigma Corp.), 1.0%, given alone | 23 ± 3 min | 119 ± 10 µmol/dL | – | – | –
1.0% RSA: rat serum albumin (RSA, manufactured by Sigma Corp.), 1.0% final concentration, given alone (protein, UniProt P02770 25-608, looked up) Albumin: EAHKSEIAHRFKDLGEQHFKGLVLIAFSQYLQKCPYEEHIKLVQEVTDFAKTCVADENAENCDKSIHTLFGDKLCAIPKLRDNYGELADCCAKQEPERNECFLQHKDDNPNLPPFQRPEAEAMCTSFQENPTSFLGHYLHEVARRHPYFYAPELLYYAEKYNEVLTQCCTESDKAACLTPKLDAVKEKALVAAVRQRMKCSSMQRFGERAFKAWAVARMSQRFPNAEFAEITKLATDVTKINKECCHGDLLECADDRAELAKYMCENQATISSKLQACCDKPVLQKSQCLAEIEHDNIPADLPSIAADFVEDKEVCKNYAEAKDVFLGTFLYEYSRRHPDYSVSLLLRLAKKYEATLEKCCAEGDPPACYGTVLAEFQPLVEEPKNLVKTNCELYEKLGEYGFQNAVLVRYTQKAPQVSTPTLVEAARNLGRVGTKCCTLPEAQRLPCVEDYLSAILNRLCVLHEKTPVSEKVTKCCSGSLVERRPCFSALTVDETYVPKEFKAETFTFHSDICTLPDKEKQIKKQTALAELVKHKPKATEDQLKTVMGDFAQFVDKCCKAADKDNCFATEGPNLVARSKEALA | – | – | no effect | 129 ± 13 µmol/dL | 31 ± 5 min

— patent US6867193B1, “Amino acid-containing albumin preparation” (Nipro Corporation, priority 1999, dated 2005)
